Reference: US20260184815A1 (published 2026)
Where a chain is given by its changes, count along the chain named. Read-outs that look alike come from different tables or passages of the source. Blank lines part the entries; values can stand above or below the binder they belong to.

Assays:
human plasma kallikrein [1] = biological target: T1, human plasma kallikrein (human, UniProt P03952 20-390; P03952 391-638); assay: ELISA, biotinylated pKal signal over streptavidin background
T1 construct: also called pKal; Human pKal
From the text: Abbreviations used: “T/B” is the ELISA signal obtained using of the “target” (biotinylated plasma kallikrein) divided by the ELISA signal of the “background” (streptavidin); both of which were coated on microtiter plates, “nd” is not determined. The symbol “q” refers to the amber suppressible stop codon (TAG), which is translated as glutamine (Q) in strains of E. coli such as the TG1 cells that were used to express the Fab fragments.
T1 sequence (P03952 20-390, chain 1 of 2): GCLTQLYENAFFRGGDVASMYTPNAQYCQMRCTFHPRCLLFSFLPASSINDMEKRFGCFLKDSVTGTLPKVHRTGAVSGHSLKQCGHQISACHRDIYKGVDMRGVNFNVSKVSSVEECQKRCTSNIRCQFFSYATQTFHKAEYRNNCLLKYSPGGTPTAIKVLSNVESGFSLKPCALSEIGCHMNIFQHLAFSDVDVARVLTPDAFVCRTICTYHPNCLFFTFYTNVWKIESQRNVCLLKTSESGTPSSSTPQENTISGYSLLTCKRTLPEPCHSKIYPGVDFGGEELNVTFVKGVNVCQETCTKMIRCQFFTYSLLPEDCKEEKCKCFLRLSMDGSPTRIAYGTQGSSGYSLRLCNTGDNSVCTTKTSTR
T1 sequence (P03952 391-638, chain 2 of 2): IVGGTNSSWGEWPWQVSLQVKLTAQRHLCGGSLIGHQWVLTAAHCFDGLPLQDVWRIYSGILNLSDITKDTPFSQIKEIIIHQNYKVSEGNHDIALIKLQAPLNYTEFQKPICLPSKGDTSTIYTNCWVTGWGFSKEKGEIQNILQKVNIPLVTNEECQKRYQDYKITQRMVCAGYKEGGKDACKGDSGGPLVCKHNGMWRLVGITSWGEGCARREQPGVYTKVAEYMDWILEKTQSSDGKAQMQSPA

[2] = biological target: T2, pKal catalytic domain Mutant 2 (human, UniProt P03952 391-638, limits assumed); assay: enzyme inhibition, equilibrium Ki,app
T2 construct: domain: catalytic domain; Expressed in Pichia pastoris, purified by IMAC; not shown: His tag fusion
T2 sequence (P03952 other isoform, or with tags, fused parts or gaps mutant limits assumed): as the sequence (P03952 391-638, chain 2 of 2) above, with R161A, Q163A, Y165A, T168A, R170A counted along it

human plasma kallikrein [3] = biological target: T3, human plasma kallikrein (human, UniProt P03952 20-390; P03952 391-638); assay: cell-based or functional assay
T3 sequence (P03952 20-390, chain 1 of 2): as the sequence (P03952 20-390, chain 1 of 2) above
T3 sequence (P03952 391-638, chain 2 of 2): as the sequence (P03952 391-638, chain 2 of 2) above

human plasma kallikrein [4] = biological target: T3, human plasma kallikrein; assay: cell-based or functional assay; remark: listed apart in the source

ELISA (T/B) (human plasma kallikrein [1]): 10.9 T/B
B1: M9-C08 (Fab, V domains shown)
VH: EVQLLESGGGLVQPGGSLRLSCAASGFTFSHYGMVWVRQAPGKGLEWVSYIVPSGGLTYYADSVKGRFTISRDNSKNTLYLQMNSLRAEDTAVYYCARVDYTGDGLGYWGQGTLVTVSS
VL: DIQMTQSPSSLSASVGDRVTITCRASQSISIYVNWYQQKPGKAPNLLIFAASSLQRGVPSRFSGSGSGADFTLTISSLQPEDFATYYCQQSFSTPLTFGGGTKVEIK
notes: HC as printed runs into CH1

fold increase of Ki,app against the wild type catalytic domain [2]: ~5 fold
B2: M6-D09 (antibody, V domains shown)
VH: EVQLLESGGGLVQPGGSLRLSCAASGFTFSFYYMVWVRQAPGKGLEWVSVIYPSGGITVYADSVKGRFTISRDNSKNTLYLQMNSLRAEDTAVYYCARDKWAVMPPYYYYAMDVWGQGTTVTVSS
VL: DIQMTQSPSSLSASVGDRVTITCRASQSIRNYLNWYQQKPGKAPNLLIYAASTLQSGVPARFSGSGSGTDFTLTISSLQPEDFATYYCQQLSGYPHTFGQGTKLEIK
notes: also called M06-D09; 559A-M06-D09

% inhibition at 10 nM (human plasma kallikrein [3]): 93.4%
B3: M209-C12 (Fab, V domains shown)
VH: EVQLLESGGGLVQPGGSLRLSCAASGFTFSHYLMTWVRQAPGKGLEWVSYISPSGGHTIYADSVKGRFTISRDNSKNTLYLQMNSLRAEDTAVYYCARVGRGIAARSRTSQLDYWGQGTLVTVSS
VL: DIQMTQSPGTLSLSPGERATLSCRTSQFVNSNYLAWYQQTPGQAPRLLIYGASSRATGIPDRFSGTGYGTDFTLTISRLEPEDYGTYYCQQSSRTPWTFGQGTRVEIK

% inhibition at 10 nM (human plasma kallikrein [3]): 80.4%
B4: M209-D03 (Fab, V domains shown)
VH: B3 VH with Q111F, L112F, Y114Q
VL: B3 VL

% inhibition at 10 nM (human plasma kallikrein [4]): 67.6%
B5: M197-G10 (Fab, V domains shown)
VH: EVQLLESGGGLVQPGGSLRLSCAASGFTFSVYAMRWVRQAPGKGLEWVSSIYPSGGKTWYADSVKGRFTISRDNSKNTLYTLQMNSLRAEDAVYYCAYRRTGIPRRDAFDIWGQGTMVTVSS
VL: DIQMTQSPSTLSASVGDRVTITCRASQSISSWLAWYQQKPGKAPNLLIYKASTLESGVPSRFSGSGSGTEFTLTISSLQPDDFATYYCQQYNTYWTFGQGTKVEIK

% inhibition at 10 nM (human plasma kallikrein [4]): 15.7%
B6: M201-F11 (Fab, V domains shown)
VH: EVQLLESGGGLVQPGGSLRLSCAASGFTFSHYIMMWVRQAPGKGLEWVSGIYSSGGITVYADSVKGRFTISRDNSKNTLYLQMNSLRAEDTAVYYCAYRRSGIPRRDAFDIWGQGTMVTVSS
VL: B5 VL with P80Q, D81P, F83D, A84F, T85A, Y86T, C88Y, Q89C

% inhibition at 10 nM (human plasma kallikrein [4]): 13.8%
B7: M198-A01 (Fab, V domains shown)
VH: B6 VH with H31P, I33T, M35I, G50S, Y52S, I57M, V59P, S101T
VL: B5 VL
